Reference: publication PMC7115751, “Identification and functional characterization of a β-glucosidase from Bacillus tequelensis BD69 expressed in bacterial and yeast heterologous systems” (PeerJ, 2020)

Substrate: O=[N+]([O-])c1ccc(O[C@@H]2O[C@H](CO)[C@@H](O)[C@H](O)[C@H]2O)cc1
Experiment: purified protein
Format: biochemical, Bacillus tequilensis
Conditions: pH 5.0 acetate buffer, 50 °C, pNPG 2–20 mM, no metal or NAD cofactor mentioned

B1: Bteqβgluc (pPIC-Bteqβgluc) (Bacillus tequilensis) (protein)
chain: MTKGLKIVTIGGGSSYTPVLVEGFIKRYDELPVRELWLVDIPEGEEKLNIVGTLAKRMVEKAGVPIDIHLTPDRRKALKDADFVTTQFRVGLLQARAKDERIPLKYGVIGQETNGPGGLFKGLRTIPVILEIAKDIEELCPNAWLVNFTNPAGMVTEALLRYSNLKKVVGLCNVPIGIKMGVAKALDVDVDRVEVQFAGLNHMVFGLDVFLDGVSVKEQVIEAMGDPKNAMTMKNTSGAEWEPDFLKALNVIPCGYHRYYFKTKEMLEHELEASQTEGTRAEVVQKVEKELFELYKDPNLAIKPPQLEKRGGAYYSDAACNLISSIYNDKHDIQPVNTINNGAIASIPDDSAVEVNCVMTKTGPKPIAVGDLPVSVRGLVQQIKSFERVAAEAAVTGDYQTALLAMTTNPLVPSDAVAKQILDDMLEAHKAYLPQFFNKIEA
notes: full-length ORF (1,329 bp; 443 residues) in pPIC9K, secreted from Pichia pastoris GS115, purified by anion exchange; no His tag mentioned
Question: With B1 as the protein, how does the Km read?
Answer: Its Km is 7.43 mM.

Question: And the kcat/Km?
Answer: The kcat/Km was 1020 M⁻¹ s⁻¹.

B2: Bteqβgluc (pET-Bteqβgluc) (Bacillus tequilensis) (protein)
chain: MTKGLKIVTIGGGSSYTPVLVEGFIKRYDELPVRELWLVDIPEGEEKLNIVGTLAKRMVEKAGVPIDIHLTPDRRKALKDADFVTTQFRVGLLQARAKDERIPLKYGVIGQETNGPGGLFKGLRTIPVILEIAKDIEELCPNAWLVNFTNPAGMVTEALLRYSNLKKVVGLCNVPIGIKMGVAKALDVDVDRVEVQFAGLNHMVFGLDVFLDGVSVKEQVIEAMGDPKNAMTMKNTSGAEWEPDFLKALNVIPCGYHRYYFKTKEMLEHELEASQTEGTRAEVVQKVEKELFELYKDPNLAIKPPQLEKRGGAYYSDAACNLISSIYNDKHDIQPVNTINNGAIASIPDDSAVEVNCVMTKTGPKPIAVGDLPVSVRGLVQQIKSFERVAAEAAVTGDYQTALLAMTTNPLVPSDAVAKQILDDMLEAHKAYLPQFFNKIEA
notes: full-length ORF (1,329 bp; 443 residues) in pET-30a(+), His-tagged, E. coli BL21(DE3) pLysS
Question: Which results are given for B2?
Answer: Km: 8.43 mM; kcat/Km: 887 M⁻¹ s⁻¹
